Legend:
[1] = biological target: T1, egrh-3 (Y94H6A.11) (Caenorhabditis elegans) (UniProt U4PLQ8)
T1 sequence: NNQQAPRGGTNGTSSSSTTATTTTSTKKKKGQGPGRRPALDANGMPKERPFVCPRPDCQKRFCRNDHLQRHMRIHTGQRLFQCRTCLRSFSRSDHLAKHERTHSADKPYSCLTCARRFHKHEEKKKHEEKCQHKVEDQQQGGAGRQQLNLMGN

[2] = biological target: T2, ZK337.2 (ZK337.2) (Caenorhabditis elegans) (UniProt O46016)
T2 sequence: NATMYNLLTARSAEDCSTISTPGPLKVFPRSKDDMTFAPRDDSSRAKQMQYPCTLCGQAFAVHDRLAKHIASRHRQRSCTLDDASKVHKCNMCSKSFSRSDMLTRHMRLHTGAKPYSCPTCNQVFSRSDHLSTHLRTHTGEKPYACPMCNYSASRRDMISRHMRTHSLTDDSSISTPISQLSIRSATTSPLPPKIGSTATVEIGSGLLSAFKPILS

[3] = biological target: T3, Y53H1A.2 (Y53H1A.2) (Caenorhabditis elegans) (UniProt B1V8K4)
T3 sequence: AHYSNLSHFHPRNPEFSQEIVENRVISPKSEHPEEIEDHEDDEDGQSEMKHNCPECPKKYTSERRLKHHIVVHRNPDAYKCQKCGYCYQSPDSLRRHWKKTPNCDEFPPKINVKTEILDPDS

[4] = system: T4, syd-9 (ZK867.1) (Caenorhabditis elegans)
T4 sequence: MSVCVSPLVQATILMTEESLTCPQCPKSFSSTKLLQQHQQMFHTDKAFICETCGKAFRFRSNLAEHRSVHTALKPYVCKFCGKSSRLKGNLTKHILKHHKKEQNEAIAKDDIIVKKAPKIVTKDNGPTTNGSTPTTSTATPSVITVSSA

[5] = biological target: ZC328.2 (ZC328.2) (Caenorhabditis elegans) (UniProt O02050)
Chain of ZC328.2 (ZC328.2) (Caenorhabditis elegans) (O02050 entry or part of it): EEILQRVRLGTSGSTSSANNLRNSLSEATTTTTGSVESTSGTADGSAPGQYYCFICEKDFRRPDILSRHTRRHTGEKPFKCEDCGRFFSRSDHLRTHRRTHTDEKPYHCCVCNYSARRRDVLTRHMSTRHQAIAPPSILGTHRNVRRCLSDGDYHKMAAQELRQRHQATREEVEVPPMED

[6] = biological target: ztf-11 (F52F12.6) (Caenorhabditis elegans) (UniProt O02274)
Chain of ztf-11 (F52F12.6) (Caenorhabditis elegans) (O02274 212-388): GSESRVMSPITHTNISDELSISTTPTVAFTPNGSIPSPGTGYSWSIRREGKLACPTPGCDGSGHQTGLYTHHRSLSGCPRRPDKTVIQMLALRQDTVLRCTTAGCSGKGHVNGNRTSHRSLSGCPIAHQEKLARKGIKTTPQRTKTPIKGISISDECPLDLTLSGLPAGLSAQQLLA

[7] = biological target: T5, C27D6.4 (C27D6.4) (Caenorhabditis elegans) (UniProt Q4JFH9)
T5 sequence: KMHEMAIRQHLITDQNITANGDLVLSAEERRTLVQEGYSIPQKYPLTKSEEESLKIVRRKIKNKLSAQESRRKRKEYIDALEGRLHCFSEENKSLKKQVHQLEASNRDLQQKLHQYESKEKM

[8] = biological target: T6, ztf-6 (W06H12.1) (Caenorhabditis elegans) (UniProt G5EC77)
T6 sequence: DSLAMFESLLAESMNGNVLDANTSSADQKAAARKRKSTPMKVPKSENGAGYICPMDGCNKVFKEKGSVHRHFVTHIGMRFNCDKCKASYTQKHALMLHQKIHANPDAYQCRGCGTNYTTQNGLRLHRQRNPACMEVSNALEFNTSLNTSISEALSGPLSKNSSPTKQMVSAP

AGGGGGAG (double strand) [8-mer AGGGGGAG]
binding signal (PBM E-score (-0.5 to 0.5)) [1]: 0.493

CCGCCCCC (double strand) [8-mer CCGCCCCC]
binding signal (PBM E-score (-0.5 to 0.5)) [2]: 0.495

AGGGGGGG (double strand) [8-mer AGGGGGGG]
binding signal (PBM E-score (-0.5 to 0.5)) [1]: 0.498

CCCCCCTC (double strand) [8-mer CCCCCCTC]
binding signal (PBM E-score (-0.5 to 0.5)) [1]: 0.497

CGGTCGGC (double strand) [8-mer CGGTCGGC]
binding signal (PBM E-score (-0.5 to 0.5)) [3]: 0.487

AGGGGGGA (double strand) [8-mer AGGGGGGA]
binding signal (PBM E-score (-0.5 to 0.5)) [1]: 0.493

ACTGTACA (double strand) [8-mer ACTGTACA]
binding signal (PBM E-score (-0.5 to 0.5)) [4]: 0.494

CCCCCCCC (double strand) [8-mer CCCCCCCC]
binding signal (PBM E-score (-0.5 to 0.5)) [1]: 0.5

CCCCCACG (double strand) [8-mer CCCCCACG]
binding signal (PBM E-score (-0.5 to 0.5)) [5]: 0.48

AAAGTTTG (double strand) [8-mer AAAGTTTG]
binding signal (PBM E-score (-0.5 to 0.5)) [6]: 0.494

CACGTGTC (double strand) [8-mer CACGTGTC]
binding signal (PBM E-score (-0.5 to 0.5)) [7]: 0.496

AAACTTTG (double strand) [8-mer AAACTTTG]
binding signal (PBM E-score (-0.5 to 0.5)) [6]: 0.481

GGTCGGCA (double strand) [8-mer GGTCGGCA]
binding signal (PBM E-score (-0.5 to 0.5)) [3]: 0.481

CAAACTTC (double strand) [8-mer CAAACTTC]
binding signal (PBM E-score (-0.5 to 0.5)) [6]: 0.48

CGGCCGAC (double strand) [8-mer CGGCCGAC]
binding signal (PBM E-score (-0.5 to 0.5)) [3]: 0.486

CACCCACG (double strand) [8-mer CACCCACG]
binding signal (PBM E-score (-0.5 to 0.5)) [2]: 0.484

AAGTTTTC (double strand) [8-mer AAGTTTTC]
binding signal (PBM E-score (-0.5 to 0.5)) [6]: 0.48

AAGTTTGA (double strand) [8-mer AAGTTTGA]
binding signal (PBM E-score (-0.5 to 0.5)) [6]: 0.48

ACACGTGT (double strand) [8-mer ACACGTGT]
binding signal (PBM E-score (-0.5 to 0.5)) [7]: 0.497

CACCCCCA (double strand) [8-mer CACCCCCA]
binding signal (PBM E-score (-0.5 to 0.5)) [2]: 0.482

CGGTCGTC (double strand) [8-mer CGGTCGTC]
binding signal (PBM E-score (-0.5 to 0.5)) [3]: 0.483

AACTTTTG (double strand) [8-mer AACTTTTG]
binding signal (PBM E-score (-0.5 to 0.5)) [6]: 0.48

CGGTGGTC (double strand) [8-mer CGGTGGTC]
binding signal (PBM E-score (-0.5 to 0.5)) [3]: 0.481

AAAAGTTT (double strand) [8-mer AAAAGTTT]
binding signal (PBM E-score (-0.5 to 0.5)) [6]: 0.492

GCCCCCCC (double strand) [8-mer GCCCCCCC]
binding signal (PBM E-score (-0.5 to 0.5)) [1]: 0.496

CTCCCCCC (double strand) [8-mer CTCCCCCC]
binding signal (PBM E-score (-0.5 to 0.5)) [1]: 0.497

GGGGGAGA (double strand) [8-mer GGGGGAGA]
binding signal (PBM E-score (-0.5 to 0.5)) [1]: 0.493

ACTGTACC (double strand) [8-mer ACTGTACC]
binding signal (PBM E-score (-0.5 to 0.5)) [4]: 0.489

AAGTTTGT (double strand) [8-mer AAGTTTGT]
binding signal (PBM E-score (-0.5 to 0.5)) [6]: 0.487

ACGTGGAT (double strand) [8-mer ACGTGGAT]
binding signal (PBM E-score (-0.5 to 0.5)) [7]: 0.492

GGGGGGGA (double strand) [8-mer GGGGGGGA]
binding signal (PBM E-score (-0.5 to 0.5)) [1]: 0.499

CCCCCCGC (double strand) [8-mer CCCCCCGC]
binding signal (PBM E-score (-0.5 to 0.5)) [5]: 0.486

GAACTGTA (double strand) [8-mer GAACTGTA]
binding signal (PBM E-score (-0.5 to 0.5)) [4]: 0.492

CGGCGGCC (double strand) [8-mer CGGCGGCC]
binding signal (PBM E-score (-0.5 to 0.5)) [3]: 0.485

ACCCCCCC (double strand) [8-mer ACCCCCCC]
binding signal (PBM E-score (-0.5 to 0.5)) [1]: 0.497

ACTGTAAT (double strand) [8-mer ACTGTAAT]
binding signal (PBM E-score (-0.5 to 0.5)) [4]: 0.489

CGCCCCCC (double strand) [8-mer CGCCCCCC]
binding signal (PBM E-score (-0.5 to 0.5)) [5]: 0.487

AGTTTCAG (double strand) [8-mer AGTTTCAG]
binding signal (PBM E-score (-0.5 to 0.5)) [8]: 0.496

CCTCCCCC (double strand) [8-mer CCTCCCCC]
binding signal (PBM E-score (-0.5 to 0.5)) [1]: 0.496

Source: PMC4434323
